Data on four molecules can be found in patent US20200317768A1 (published 2020).

Common to all, as to experiment: SPR (Biacore), KD of SG1 / KD of variant;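 note: relative to parent M103205H795-SG1 carrying the SG1 human heavy chain constant region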
(SPR reads the build-up and loss of mass on a sensor chip optically.)

Experiment [1] addresses T1, human FcγRIIaR extracellular domain, C-terminal His-tag (human, UniProt P12318 34-217).
T1 construct: also called human FcγRIIa (type R); FcgRIIaR; not shown: His-tag added to C-terminus
T1 chain: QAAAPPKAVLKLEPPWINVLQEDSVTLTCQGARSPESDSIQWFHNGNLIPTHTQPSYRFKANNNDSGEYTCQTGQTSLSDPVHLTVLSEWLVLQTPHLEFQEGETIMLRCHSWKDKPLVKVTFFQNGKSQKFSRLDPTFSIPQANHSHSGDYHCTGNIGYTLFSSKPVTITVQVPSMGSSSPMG
How it is done: (§1) The kinetic analysis of interactions between these antibodies and FcγR was carried out using BIACORE® T200 or BIACORE® 4000 (GE Healthcare). HBS-EP+ (GE Healthcare) was used as the running buffer, and the measurement temperature was set to 25° C. A chip produced by immobilizing Protein A. Protein A/G or mouse anti-human IgG kappa light chain (BD Biosciences) onto a Series S Sensor Chip CM4 or CM5 (GE Healthcare) by the amine-coupling method was used. […] After the measurement, the antibody captured on the chip was washed off by allowing reaction with 10 mM glycine-HCl, pH1.5 and 25 mM NaOH so that the chip was regenerated and used repeatedly. The sensorgrams obtained as measurement results were analyzed by the 1:1 Langmuir binding model using the BIACORE® Evaluation Software to calculate the binding rate constant ka (L/mol/s) and dissociation rate constant kd (l/s), and the dissociation constant KD (mol/L) was calculated from these values. […] Regarding such interactions, KD values were calculated using the following 1:1 binding model described in BIACORE® T100 Software Handbook BR1006-48 Edition AE.
(§2) The behavior of interacting molecules according to the 1:1 binding model on BIACORE® can be described by Equation 1: Req=C·R max/(KD+C)+RI, wherein, Req is a plot of steady-state binding levels to analyte concentration. C is concentration, RI is bulk refractive index contribution in the sample, and Rmax is analyte binding capacity of the surface. When this equation is rearranged, KD can be expressed as Equation 2: KD=C·Rmax/(Req−RI)−C. KD can be calculated by substituting the values of Rmax, RI, and C into Equation 1 or Equation 2. From the current measurement conditions, RI=0, C=2 μmol/L can be used.

Experiment [2] deals with T2, cynomolgus monkey FcγRIIa2 extracellular domain, C-terminal His-tag (cynomolgus monkey).
T2 construct: also called cyno FcγRIIa2; cynoFcgRIIa2; not shown: His-tag added to C-terminus
T2 chain: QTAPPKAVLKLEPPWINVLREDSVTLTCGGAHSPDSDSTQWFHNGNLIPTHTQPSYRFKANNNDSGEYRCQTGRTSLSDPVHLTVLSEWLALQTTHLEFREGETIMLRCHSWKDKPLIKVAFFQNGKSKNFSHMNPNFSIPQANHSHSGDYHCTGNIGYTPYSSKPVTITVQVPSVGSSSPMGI
How it is done: as §1, §2

Experiment [3] addresses T3, human FcγRIIIaV extracellular domain, C-terminal His-tag (human, UniProt P08637 17-208).
T3 construct: also called FcgRIIIaV; not shown: His-tag added to C-terminus
How it is done:
as §1, §2

Experiment [4] deals with T4, human FcγRIIaH extracellular domain, C-terminal His-tag (human, UniProt P12318 34-217).
T4 construct: also called human FcγRIIa (type H); FcgRIIaH; not shown: His-tag added to C-terminus
T4 sequence: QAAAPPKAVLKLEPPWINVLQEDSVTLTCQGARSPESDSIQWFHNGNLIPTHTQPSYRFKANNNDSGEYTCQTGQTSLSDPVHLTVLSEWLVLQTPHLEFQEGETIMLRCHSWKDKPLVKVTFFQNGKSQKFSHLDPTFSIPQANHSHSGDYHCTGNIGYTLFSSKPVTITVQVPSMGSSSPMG
How it is done:
as §1, §2

Experiment [5] has as its target T5, cynomolgus monkey FcγRIIb extracellular domain, C-terminal His-tag (cynomolgus monkey).
T5 construct: also called cyno FcγRIIb; cynoFcγRIIb; not shown: His-tag added to C-terminus
T5 chain: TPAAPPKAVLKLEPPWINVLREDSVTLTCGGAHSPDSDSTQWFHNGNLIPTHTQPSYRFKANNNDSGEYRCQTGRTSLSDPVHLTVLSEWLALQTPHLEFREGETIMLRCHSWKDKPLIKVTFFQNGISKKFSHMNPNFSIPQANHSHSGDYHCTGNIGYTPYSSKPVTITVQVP
The method, then: as §1, §2

In experiment [6] the target is T6, cynomolgus monkey FcγRIIa1 extracellular domain, C-terminal His-tag (cynomolgus monkey).
T6 construct: also called cyno FcγRIIa1; cynoFcgRIIa1; not shown: His-tag added to C-terminus
T6 chain: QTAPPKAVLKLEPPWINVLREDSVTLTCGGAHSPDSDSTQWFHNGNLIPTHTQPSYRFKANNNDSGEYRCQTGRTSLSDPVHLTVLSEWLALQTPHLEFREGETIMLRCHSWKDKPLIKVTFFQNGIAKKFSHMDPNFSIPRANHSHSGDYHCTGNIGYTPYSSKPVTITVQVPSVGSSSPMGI
How it is done:
as §1, §2

Experiment [7] concerns the target T7, cynomolgus monkey FcγRIIIaS extracellular domain, C-terminal His-tag (cynomolgus monkey, UniProt A3RFZ7 21-206 (rhesus entry)).
T7 construct: also called cyno FcγRIIIaS; cynoFcγRIIIaS; not shown: His-tag added to C-terminus
The method, then:
as §1, §2

T7 sequence (A3RFZ7 21-206): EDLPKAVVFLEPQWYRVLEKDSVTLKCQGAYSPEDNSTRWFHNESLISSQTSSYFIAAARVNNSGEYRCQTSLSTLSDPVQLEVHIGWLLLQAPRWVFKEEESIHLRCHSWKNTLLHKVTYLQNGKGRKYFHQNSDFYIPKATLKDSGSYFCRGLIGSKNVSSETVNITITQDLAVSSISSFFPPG
T3 sequence (P08637 17-208 F176V): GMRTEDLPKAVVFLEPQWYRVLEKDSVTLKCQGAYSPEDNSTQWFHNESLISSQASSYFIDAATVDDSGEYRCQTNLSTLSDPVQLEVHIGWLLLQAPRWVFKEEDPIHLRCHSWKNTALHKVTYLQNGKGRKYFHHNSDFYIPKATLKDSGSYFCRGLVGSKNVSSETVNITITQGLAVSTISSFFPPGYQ

B1: M103205H795-MY270/M103202L889-SK1 (antibody, human IgG1, kappa)
heavy: QVTLKESGPVLVKPTETLTLTCTVSGIDLSHDDISWVRQAPGKGLEWVGIISYAGSTYYASWAKGRLTISKDTSKNQVVLTMTNMDPVDTATYYCARGVPAYSHGGDLWGQGTLVTVSSASTKGPSVFPLAPSSKSTSGGTAALGCLVKDYFPEPVTVSWNSGALTSGVHTFPAVLQSSGLYSLSSVVTVPSSSLGTQTYICNVNHKPSNTKVDKKVEPKSCDKTHTCPPCPAPELLHGPSVFLFPPKPKDTLMISRTPEVTCVVVDVSDEDPEVKFNWYVDGVEVHNAKTKPREEQYNSTYRVVSVLTVLHQDWLNGKEYKCKVSNKALPKPIEKTISKAKGQPREPQVYTLPPSREEMTKNQVSLTCLVKGFYPSDIAVEWESNGQPENNYKTTPKVLDSDGSFFLYSKLTVDKSRWQQGNVFSCSVMHEALHNHYTQKSLSLSP
light: DIVMTQSPATLSLSPGERATLSCTSSQSVYHANWLSWFQQKPGQPPKLLIYWASTLAYGVPSRFSGSGSGTDFTLTISSLQPEDAATYYCAGGYGGGRYAFGQGTKVEIKRTVAAPSVFIFPPSDEQLKSGTASVVCLLNNFYPREAKVQWKVDNALQSGNSQESVTEQDSKDSTYSLSSTLTLSKADYEKHKVYACEVTHQGLSSPVTKSFNRGEC
For B1, the “KD fold (SG1 = 1)” value in experiment [1] amounted to 3.1 fold; in experiment [2], 2.4 fold; in experiment [3] it was 0.22 fold; in experiment [4], 9.5 fold; in experiment [5], 3.4 fold; in experiment [6], 1.8 fold. The “KD fold (SG1 = 1)” value in experiment [7] is 0.33 fold.

B2: M103205H795-MY273/M103202L889-SK1 (antibody, human IgG1, kappa)
heavy: QVTLKESGPVLVKPTETLTLTCTVSGIDLSHDDISWVRQAPGKGLEWVGIISYAGSTYYASWAKGRLTISKDTSKNQVVLTMTNMDPVDTATYYCARGVPAYSHGGDLWGQGTLVTVSSASTKGPSVFPLAPSSKSTSGGTAALGCLVKDYFPEPVTVSWNSGALTSGVHTFPAVLQSSGLYSLSSVVTVPSSSLGTQTYICNVNHKPSNTKVDKKVEPKSCDKTHTCPPCPAPELLLGPSVFLFPPKPKDTLMISRTPEVTCVVVDVSDEDPEVKFNWYVDGVEVHNAKTKPREEQYNSTYRVVSVLTVLHQDWLNGKEYKCKVSNKALPKPIEKTISKAKGQPREPQVYTLPPSREEMTKNQVSLTCLVKGFYPSDIAVEWESNGQPENNYKTTPKVLDSDGSFFLYSKLTVDKSRWQQGNVFSCSVMHEALHNHYTQKSLSLSP
light: DIVMTQSPATLSLSPGERATLSCTSSQSVYHANWLSWFQQKPGQPPKLLIYWASTLAYGVPSRFSGSGSGTDFTLTISSLQPEDAATYYCAGGYGGGRYAFGQGTKVEIKRTVAAPSVFIFPPSDEQLKSGTASVVCLLNNFYPREAKVQWKVDNALQSGNSQESVTEQDSKDSTYSLSSTLTLSKADYEKHKVYACEVTHQGLSSPVTKSFNRGEC
As for B2, the “KD fold (SG1 = 1)” value in experiment [1] is 1.1 fold; in experiment [2] it was 1.5 fold; in experiment [3], 0.08 fold; in experiment [4], 1.4 fold; in experiment [5], 1.5 fold; in experiment [6], 0.8 fold. Also, the “KD fold (SG1 = 1)” value in experiment [7] was 0.21 fold.

B3: M103205H795-MY271/M103202L889-SK1 (antibody, human IgG1, kappa)
heavy: QVTLKESGPVLVKPTETLTLTCTVSGIDLSHDDISWVRQAPGKGLEWVGIISYAGSTYYASWAKGRLTISKDTSKNQVVLTMTNMDPVDTATYYCARGVPAYSHGGDLWGQGTLVTVSSASTKGPSVFPLAPSSKSTSGGTAALGCLVKDYFPEPVTVSWNSGALTSGVHTFPAVLQSSGLYSLSSVVTVPSSSLGTQTYICNVNHKPSNTKVDKKVEPKSCDKTHTCPPCPAPELLVGPSVFLFPPKPKDTLMISRTPEVTCVVVDVSDEDPEVKFNWYVDGVEVHNAKTKPREEQYNSTYRVVSVLTVLHQDWLNGKEYKCKVSNKALPKPIEKTISKAKGQPREPQVYTLPPSREEMTKNQVSLTCLVKGFYPSDIAVEWESNGQPENNYKTTPKVLDSDGSFFLYSKLTVDKSRWQQGNVFSCSVMHEALHNHYTQKSLSLSP
light: DIVMTQSPATLSLSPGERATLSCTSSQSVYHANWLSWFQQKPGQPPKLLIYWASTLAYGVPSRFSGSGSGTDFTLTISSLQPEDAATYYCAGGYGGGRYAFGQGTKVEIKRTVAAPSVFIFPPSDEQLKSGTASVVCLLNNFYPREAKVQWKVDNALQSGNSQESVTEQDSKDSTYSLSSTLTLSKADYEKHKVYACEVTHQGLSSPVTKSFNRGEC
B3: the “KD fold (SG1 = 1)” value is 4.8 fold in experiment [1]; 7.3 fold in experiment [2]; 0.35 fold in experiment [3]; 15.7 fold in experiment [4]; 9.5 fold in experiment [5]; 4.7 fold in experiment [6]. In experiment [7], the “KD fold (SG1 = 1)” value came out at 0.41 fold.

B4: M103205H795-MY272/M103202L889-SK1 (antibody, human IgG1, kappa)
heavy: QVTLKESGPVLVKPTETLTLTCTVSGIDLSHDDISWVRQAPGKGLEWVGIISYAGSTYYASWAKGRLTISKDTSKNQVVLTMTNMDPVDTATYYCARGVPAYSHGGDLWGQGTLVTVSSASTKGPSVFPLAPSSKSTSGGTAALGCLVKDYFPEPVTVSWNSGALTSGVHTFPAVLQSSGLYSLSSVVTVPSSSLGTQTYICNVNHKPSNTKVDKKVEPKSCDKTHTCPPCPAPELLQGPSVFLFPPKPKDTLMISRTPEVTCVVVDVSDEDPEVKFNWYVDGVEVHNAKTKPREEQYNSTYRVVSVLTVLHQDWLNGKEYKCKVSNKALPKPIEKTISKAKGQPREPQVYTLPPSREEMTKNQVSLTCLVKGFYPSDIAVEWESNGQPENNYKTTPKVLDSDGSFFLYSKLTVDKSRWQQGNVFSCSVMHEALHNHYTQKSLSLSP
light: DIVMTQSPATLSLSPGERATLSCTSSQSVYHANWLSWFQQKPGQPPKLLIYWASTLAYGVPSRFSGSGSGTDFTLTISSLQPEDAATYYCAGGYGGGRYAFGQGTKVEIKRTVAAPSVFIFPPSDEQLKSGTASVVCLLNNFYPREAKVQWKVDNALQSGNSQESVTEQDSKDSTYSLSSTLTLSKADYEKHKVYACEVTHQGLSSPVTKSFNRGEC
As for B4, the “KD fold (SG1 = 1)” value in experiment [1] came to 4.4 fold; in experiment [2] it was 2.7 fold; in experiment [3], 0.93 fold; in experiment [4], 7.5 fold; in experiment [5], 4.2 fold; in experiment [6], 1.9 fold. In addition, the “KD fold (SG1 = 1)” value in experiment [7] amounted to 1.24 fold.
